Test [1] concerns the target T1, SARS-CoV-2 nucleocapsid protein (SARS-CoV-2, UniProt P0DTC9 1-419).
T1 construct: also called N protein
Kind of test: ELISA on recombinant protein. Background: An ELISA detects its analyte on a solid surface through an enzyme-linked reagent.

The target in test [2] is T2, MERS spike extracellular domain (Middle East respiratory syndrome …, UniProt K9N5Q8 18-1296).
T2 construct: extracellular domain
The test is described as follows: ELISA.

Test [3] has as its target T3, SARS spike S1 subunit (severe acute respiratory syndrome …, UniProt P59594 14-667).
T3 construct: domain: S1 subunit
Kind of test: ELISA.

Test [4] concerns the target T4, Human coronavirus OC43 spike extracellular domain (human coronavirus OC43, UniProt P36334 14-1297).
T4 construct: extracellular domain
The test is described as follows: ELISA.

Test [5] concerns the target T5, SARS-CoV-2 spike S2 subunit (SARS-CoV-2, UniProt P0DTC2 686-1213).
T5 construct: domain: S2 subunit
The test is described as follows: ELISA.

B1: EY 9C (antibody, V domains shown)
VH: EVQLVESGGGLVKPGGSLRLSCAASEFTFSSYTLNWVRQAPGKGLEWVSSISTSSAYIYYADSVKGRFTISRDNAKKSLSLQMNSLTAEDTAVYYCATWGGAPFDYWGQGTMVTVS
VL: QSVLTQPASVSGSPGRSITISCTETSSDVGTYNLVSWYQQHPGKAPKLMIFDDNKRPSGVSNRFSGSKSGNTASLTISGLQAEDEADYYCCSYAGGRTFNVLFGGGTKLTVL
Turning to B1, in test [1], the binding result is “binds”.

B2: EZ 11A (antibody, V domains shown)
VH: EVQLVESGGGLVQPGGSLRLSCAASGFTFSSYWMSWVRQAPGKGLEWVANIKQDGSEKYYVDSVKGRFTISRDNAKNSLYLQMNSLRAEDTAVYYCARDDYSGSYYWEFDYWGQGTLVTVSS
VL: QPVLTQSPSASASLGASVKLTCTLSSGHSSYAIAWHQQQPEKGPRYLMKLNSDGSHSKGDGIPDRFSGSSSGAERYLTISSLQSEDEADYYCQTWGTGIWVFGGGTKLTVL
With B2, in test [1], the binding result is reported as “binds”.

B3: FI 4A (antibody, V domains shown)
VH: EVQLVESGGGLVKPGGSLRLSCAASGFTFSRFSMNWVRQAPGKGLEWVSSISSSGSYIYFADSVKGRFTISRDNAKNSLYLQMNSLRAEDTAIYYCATYLFGDSHTYWGQGTLVTVSS
VL: QSVLTQPHSVSESPGKTVTISCTGSSGSIASNYVQWYQQRPGSAPTTVIYEDNQRPSGVPDRFSGSIDSSSNSASLTISGLKTEDEADYYCQSYDSSNLHWVFGGGTKLTVL
Take B3: the binding result in test [2], in test [3], in test [4] and in test [5] was “no binding” each time.

B4: EY 12A (antibody, V domains shown)
VH: EVQLVESGPGLVKPSQTLSLTCAVSGGSISSGGYYWSWIRQPPGKGLELIGYTDYTGKTLYNPSLKSRLTISVDTSKNQFSLKLRSVTAADTAVYYCARGMTQDDILTGFNRPHWYFDLWGRGSLVTVSS
VL: QSVLTQPPSVSGAPGQRVTISCTGSSSNIGAGYDVHWYQQLPGTAPKVVIYRNMNRPSGVPDRFSGSKSGTSASLAITGLQAEDEADYYCQSFDSSLSDFVVFGGGTKLTVL
On to B4, for which the binding result in test [1] is reported as “binds”.

B5: EW 1A (antibody, V domains shown)
VH: EVQLVESGGGVVQPGSSLRLSCETSGFTFSGHAMHWVRQAPGKGLEWLAQIWFDGSEKYYADSVKGRFTISRDNSKKILYMQMNSLRVQDTAVYYCARDGQHLAPFAMDVWGQGTMVTVSS
VL: QSVLTQPASVSGSPGQSITISCTGTSSDVGASNRVSWYQHSPGEAPKLIIYQVTVRPSGVSDRFSGSKSGNTASLTISGLRTEDEAEYYCNSFVSGDSWVFGGGTKVTVL
With B5, the binding result in test [1] is given as “binds”.

B6: EZ 9B (antibody, V domains shown)
VH: not shown
VL: SYELTQPPSVSVAPGQTARITCGGNNIGSKSVHWYQQKPGQAPVLVVYDDSDRPSGIPERFSGSNSGNTATLTISRVEAGDEADYYCQVWDSSSDHPSWVFGGGTKLTVL
For B6, the binding result in test [1] is recorded as “binds”.

B7: EY 12B (antibody, V domains shown)
VH: EVQLVESGGDLVQPGRSLRLSCAASGFTFDYFAMHWVRQVPGKGLEWVSGIRWNSETIGYADSVKGRFTISRDNAKKSLYLEMNSLRSEDTAFYYCAKGRSGYGHTAFDVWGQGTMVTVSS
VL: QSALTQPPSVSGAPGQRVTISCTGSSSNIGANYDVHWYQRLPGTAPKLLIYDNNNRPSGVPDRFSGSKSGTSASLAIAGLQAEDEADYYCQSYDSSLSASVFGGGTKLTVL
Turning to B7, in test [1], the binding result is “binds”.

B8: EZ 7A (antibody, V domains shown)
VH: EVQLVESGAEVKKPGESLKISCKGSGYSFTSYWIGWVRQMPGKGLEWMGIIYPGDSDTRYSPSFQGQVTISADKSISTAYLQWSSLKASDTAMYYCARGWVYRGFPYYGMDVWGQGTMVTVSS
VL: QSALTQPRSVSGSPGQSVTISCTGTSSDVGGYNYVSWYQQHPGKAPKLMIYDVSKRPSGVPDRFSGSKSGNTASLTISGLQAEDEADYYCCSYAGSYTLVFGGGTKLTVL
With B8, the binding result in test [2] was “binds”; in test [3], “binds”; in test [5], “no binding”.

B9: EW 10C (antibody, V domains shown)
VH: EVQLVESGGGLVQPGGSLRLSCAASGFTFNKYKMTWVRQAPGKGLEWVANIKEDGSEKNYVDSVKGRFTISRDNARNSVYMHLNNLRVEDTAVYYCARGRTLGDWGQGTTVTVSS
VL: AIRMTQSPLSLPVTLGQPASISCRSSQSLVHSDGNTYLNWFQQRPGQSPRRLIYKVSNRDSGAPDRFSGSGSGTDFTLKISRVEAEDVGVYYCMQGTHWPPITFGPGTKVDIK
For B9, the binding result in test [1] is “binds”.

B10: FN 12A (antibody, V domains shown)
VH: QVQLVQSGAEVKKPGSSVKVSCKASGGTFSSYAISWVRQAPGQGLEWMGRIIPILGIANYAQKFQGRVTITADKSTSTAYMELSSLRSEDTAVYYCARSGCSSTSCPSNLYYYYYGMDVWGQGTTVTVSS
VL: QSVLTQPPSVSAAPGQKVTISCSGSSSNIGNNYVSWYQQLPGTAPKLLIYDNNKRPSGIPDRFSGSKSGTSATLGITGLQTGDEADYYCGTWDSSLSALVFGGGTKLTVL
Consider B10, for which the binding result in test [2] was “binds”; in test [3] it was “binds”; in test [4], “binds”; in test [5], “no binding”.

B11: EZ 9C (antibody, V domains shown)
VH: EVQLVESGGGLVQPGGSLRLSCSASGFTLNGYAMHWVRQAPGKGLEYVSSLSNRGDNTRYAESVKGRFLISRDIAKDTLYLQMSSLRPEDTAVYYCGKGLLSASGGLPIDDWGQGTLVTVSS
VL: QSVLTQPPSVSAAPGQKVTISCSGSSSNIGNNYVSWYQQFPGTAPKLLIYDNNKRPSGIPDRFSGSKSGTSATLGITGLQTGDEAAYYCATWDSSLSAGVFGGGAKLTVL
Regarding B11, the binding result in test [1] is on record as “binds”.

B12: EZ 11C (antibody, V domains shown)
VH: EVQLVESGAEVKKPGASVKVSCKVSGYTLTELSMHWVRQAPGKGLEWMGGFDPEDGETIYAQKFQGRVTMTEDTSTDTAYMELSSLRSEDTAVYYCATTTVTTPTANWFDPWGQGTLVTVSS
VL: QSALTQPPSVSAAPGQKVTISCSGSSSNIGNNYVSWYQQLPGTAPKLLIYENNKRPSGIPDRFSGSKSGTSATLGITGLQTGDEADYYCGTWDSSLRQVVFGGGTKLTVL
B12: the binding result in test [1] was “binds”.

B13: FJ 10B (antibody, V domains shown)
VH: QVQLVQSGAEVKKPGESLRISCKGSGYSFTSYWISWVRQMPGKGLEWMGRIDPSDSYTNYSPSFQGHVTISADKSISTAYLQWSSLKASDTAMYYCARLDPRYGPDYYGMDVWGQGTTVTVSS
VL: AIRMTQSPSSLSASVGDRVTITCRASQSISSYLNWYQQKPGKAPKLLIHAASSLQSGVPSRFSGSGSGTDFTLTMSSLQPEDFATYYCQQSYSTPLTFGGGTKVEIR
For the molecule B13, the binding result in test [2] is given as “no binding”; in test [3] it was “binds”; in test [4], “no binding”; in test [5], “no binding”.

B14: FD 5B (antibody, V domains shown)
VH: not shown
VL: QSVLTQPPSASGSPGQSVTISCTGTSSDAGGYNYVSWYQQHPGKAPKLMIYEVSKRPSGVPDRFSGSKSGNTASLTVSGLQAEDEADYYCSSYAGSNNPFVFGTGTKVTVL
On to B14, for which the binding result in test [1] is “binds”.

B15: EZ 8C (antibody, V domains shown)
VH: EVQLVESGGGLVKPGGSLRLSCAASGFTFSSYTMNWVRQAPGKGLEWVSSFIANSDYKFYADSVKGRFTISRDNAKSSLYLQMNSLRAEDTAVYYCARELTSYGSHDAFDIWGQGTMVTVSS
VL: QSALTQPASVSGSPGQSITISCTGTSSDVGGYNYVSWYQQHPGKAPKLLIYEVTNRPSGVSDRFSGSKSANVASLTISGLQAEDEADYYCSSYTTTDSVVFGGGTKLTVL
In the case of B15, the binding result in test [1] is “binds”.

B16: EW 5A (antibody, V domains shown)
VH: EVQLVESGGGLVQPGGSLRLSCSVSGFPFGTYAMHWVRQAPGKGLDYVSAINNDGSITYYADSVRGRFTVSRDNSENTLYLRLSGLRPDDTAIYYCVKDRGSVIRDFDVWGRGTLVTVSS
VL: QTVVTQEPSLTVSPGGTVTLTCASSTGTVTSDYYPNWFQQKPGQAPRPLIFGTAYRHSWTPARFSGSLLGGKAALTVSDVQPEDEADYYCLLYCGGGQLFGGGTKLTVL
Consider B16, for which the binding result in test [1] was “binds”.

B17: FM 7B (antibody, V domains shown)
VH: EVQLVQSGAEVKKPGASVKVSCKASGYTFTSYAMHWVRQAPGQRLEWMGWINTGNGNTKYSQKFQGRVTITRDTSASTAYMELSSLRSEDTAVYYCARDPTYCSSTSCYPFSWFDPWGQGTLVTVSS
VL: NFMLTQPPSVSVAPGQTARITCGGNNIGSKSVHWYQQKPGQAPVLVVYDDSDRPSGIPERFSGSNSGNTATLTISRVEAGDEADYYCQVWDSTGDHSWVFGGGTKLTVL
Regarding B17, the binding result in test [2] is on record as “no binding”; in test [3] it was “binds”; in test [4], “no binding”; in test [5] it was “no binding”.

B18: EW 9A (antibody, V domains shown)
VH: EVQLLESGGGVVQPGRSLRLSCAASGFTFSSYGMHWVRQAPGKGLEWVAVIWYDGSNKYYADSVKGRFTISRDNSKNTLYLQMNSLRAEDTAVYYCAKDMWALYDILTGYYTPYYYYGMDVWGQGTTVTVSS
VL: SYELTQPPSVSVSPGQTARITCSADALPKQYAYWYQQKPGQAPVLVIYKDSERPSGIPERFSGSSSGTTVTLTISGVQAEDEADYYCQSADSSGTYWVFGGGTKLTVL
B18: the binding result in test [1] was “binds”.

B19: EZ 9A (antibody, V domains shown)
VH: EVQLVESGGGLVQPGESLRVSCAASGFTFSNYWMHWVRQVPGKGPVWVSIINTDGSITRYVDSVRGRFTISRDNAKNTVHLQMNSLTAEDTAIYYCARDVNRYPDYWGQGTLVTVSS
VL: QSALTQPASVSGSPGQSITISCTGTYSDVGYYNYVSWYQQQPGKAPKVIIHGDINRPFGVSNRFSGSKSGNTASLTISGLQAEDEADYFCCSYVNNGAWVFGGGTKLTVL
Regarding B19, the binding result in test [1] is recorded as “binds”.

These data come from patent US20230279079A1 (CHANG GUNG MEMORIAL HOSPITAL LINKOU, published 2023).
